In US20120108796A1 (Bayer, published 2012):
Where a chain is given by its changes, count along the chain named. In names and notes the source's numbering stands.

T1: human TFPI (tissue factor pathway inhibitor) (human, UniProt P10646 29-304, limits assumed)
T1 construct: bought protein, coated on ELISA plates or amine-coupled to a CM5 chip; also called hTFPI
T1 sequence (looked up): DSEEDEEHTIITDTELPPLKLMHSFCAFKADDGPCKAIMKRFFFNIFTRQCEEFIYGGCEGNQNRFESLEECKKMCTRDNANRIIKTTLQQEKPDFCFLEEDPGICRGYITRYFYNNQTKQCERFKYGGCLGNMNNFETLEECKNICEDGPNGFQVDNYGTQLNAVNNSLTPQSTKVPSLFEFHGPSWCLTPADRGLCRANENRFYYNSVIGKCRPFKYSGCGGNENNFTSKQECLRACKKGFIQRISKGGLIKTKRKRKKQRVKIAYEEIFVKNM

B1: 4B7 wild-type Fab (Fab, V domains shown)
VH: QVQLQQSGPGLVKPSQTLSLTCAISGDSVSSNSAAWSWIRQSPGRGLEWLGIIYKRSKWYNDYAVSVKSRITINPDTSKNQFSLQLNSVTPEDTAVYYCARWHSDKHWGFDYWGQGTLVTVSS
VL: DIVMTQSPLSLPVTPGEPASISCRSSQSLVFSDGNTYLNWYLQKPGQSPQLLIYKGSNRASGVPDRFSGSGSGTDFTLKISRVEAEDVGVYYCQQYDSYPLTFGQGTKVEIKR
B2: 4B7 HC H107M LC F31I (Fab, V domains shown)
VH: B1 VH with H107M
VL: B1 VL with F31I
notes: Fab; tags as m115; also called HC H107M LC F311 (so in the source)
B3: 4B7 HC D62R (Fab, V domains shown)
VH: B1 VH with D62R
VL: B1 VL
B4: 2A8 wild-type Fab (Fab, V domains shown)
VH: QVQLVESGGGLVQPGGSLRLSCAASGFTFRSYGMSWVRQAPGKGLEWVSSIRGSSSSTYYADSVKGRFTISRDNSKNTLYLQMNSLRAEDTAVYYCARKYRYWFDYWGQGTLVTVSS
VL: DIELTQPPSVSVAPGQTARISCSGDNLRNYYAHWYQQKPGQAPVVVIYYDNNRPSGIPERFSGSNSGNTATLTISGTQAEDEADYYCQSWDDGVPVFGGGTKLTVLG
B5: 2A8 LC Y48F (Fab, V domains shown)
VH: B4 VH
VL: B4 VL with Y48F
B6: 2A8-143 (Fab, V domains shown)
VH: B4 VH with S35D, S55R, K99L
VL: B4 VL with Y48F, N51V, D91L, V96W
B7: 2A8-200 (Fab, V domains shown)
VH: B4 VH with S35D, S55R, K99L
VL: B4 VL with Y48F, N51V, D91W
B8: 2A8 LC D91W (Fab, V domains shown)
VH: B4 VH
VL: B4 VL with D91W
B9: 2A8 HC S35D (Fab, V domains shown)
VH: B4 VH with S35D
VL: B4 VL
B10: 2A8-127 (Fab, V domains shown)
VH: B4 VH with S35D, K99L
VL: B4 VL with Y48F, N51V, G56D, V96W
B11: 2A8 LC D91L (Fab, V domains shown)
VH: B4 VH
VL: B4 VL with D91L
B12: 2A8 HC I51E (Fab, V domains shown)
VH: B4 VH with I51E
VL: B4 VL
B13: 2A8 HC S31P (Fab, V domains shown)
VH: B4 VH with S31P
VL: B4 VL
B14: 2A8 HC K99L (Fab, V domains shown)
VH: B4 VH with K99L
VL: B4 VL
B15: 2A8 HC S31V (Fab, V domains shown)
VH: B4 VH with S31V
VL: B4 VL
B16: 2A8 HC K99V (Fab, V domains shown)
VH: B4 VH with K99V
VL: B4 VL
B17: 2A8 HC S54F (Fab, V domains shown)
VH: B4 VH with S54F
VL: B4 VL
B18: 2A8-216 (Fab, V domains shown)
VH: B4 VH with S31V, I51D, S55R, K99V
VL: B4 VL with Y48F, D91L, V96W
B19: 2A8 LC D91K (Fab, V domains shown)
VH: B4 VH
VL: B4 VL with D91K

Assays:
[1] = target: T2, recombinant TFPI of the FXa restoring assay (human, mouse or rat; species not stated for Tables 9 and 10); assay: cell-based or functional assay
[2] = target: T1, human TFPI (tissue factor pathway …); assay: competitive ELISA
Protocol: Briefly, MTP plates (either Mesoscale Discovery, L21XA-4 or Nunc maxisorp black, 460518) were coated with 0.04-2 lug/m1 either human or mouse TFPI diluted in phosphate buffered saline (PBS) or in coating buffer (Candor Bioscience GmbH, 121500), respectively and incubated over night at 4° C. After washing, plates were blocked with 3% bovine serum albumin (Sigma, A4503) in PBST for 1 hour at room temperature and the washing step was repeated. For binding of the antibodies 10-25 µl of culturing supernatants normalized to their respective antibody expression level (if not otherwise indicated) were added to the plates for 1 hour at RT followed by washing with PBST. Bound wild-type and variants were then either detected by an epitope tag specific antibody or a competition step was included. For competition, 50-300 nM competitor or free antigen was added and incubated for 20 minutes to 24 hours at room temperature. […] For signal detection in maxisorp plates 10 [tM amplex red substrate (Invitrogen, A12222) was added and incubated for 10 to 30 minutes at room temperature in the dark followed by fluorescence measurement. For the detection in MSD plates MSD read buffer T was diluted to 2× in H2O (Mesoscale Discovery, R92TC-1), added to the plates and the electrochemiluminiscence signal was detected at 620 nm using the Mesoscale Discovery Sector Imager 6000. […]

[3] = target: T2, recombinant TFPI of the FXa restoring …; assay: cell-based or functional assay; remark: listed apart in the source

| Binder | IC 50, FXa restoring assay [1] | Improvement of IC50 vs 4B7wt [1] | variant/wild-type [2] | EC50, FXa restoring assay [3] | Improvement of EC50 vs 2A8 wt [3] | Improvement of IC50 vs 2A8wt [1] |
| --- | --- | --- | --- | --- | --- | --- |
| B1 | 1.46 µg/mL | 1 fold | – | – | – | – |
| B2 | – | – | 3.7 ratio | – | – | – |
| B3 | 0.058 µg/mL | 25 fold | – | – | – | – |
| B4 | 0.7 µg/mL | – | – | 7.91 nM | 1 fold | 1 fold |
| B5 | 0.34 µg/mL | – | – | – | – | 1.9 fold |
| B6 | – | – | – | 0.5 nM | 15.8 fold | – |
| B7 | – | – | – | 0.81 nM | 9.7 fold | – |
| B8 | 0.23 µg/mL | – | – | – | – | 3 fold |
| B9 | 0.55 µg/mL | – | – | – | – | 1.1 fold |
| B10 | – | – | – | 0.44 nM | 18.2 fold | – |
| B11 | 0.37 µg/mL | – | – | – | – | 1.7 fold |
| B12 | 0.76 µg/mL | – | – | – | – | 0.9 fold |
| B13 | 0.33 µg/mL | – | – | – | – | 1.7 fold |
| B14 | 0.181 µg/mL | – | – | 1 nM | 7.9 fold | 3.9 fold |
| B15 | 0.201 µg/mL | – | – | – | – | 3.5 fold |
| B16 | 0.39 µg/mL | – | – | – | – | 1.6 fold |
| B17 | 0.35 µg/mL | – | – | – | – | 2 fold |
| B18 | – | – | – | 1.08 nM | 7.3 fold | – |
| B19 | 0.34 µg/mL | – | – | – | – | 1.9 fold |
